In patent US20220363770A1:
Substitutions are numbered along the chain they refer to. One block for each binder: values may come before it.

Experiments:
[1] = molecular target: human PAC1 receptor extracellular domain (ECD) (human) (UniProt P41586); test: yeast-displayed Fab, FACS, 10 nM PAC1 receptor ECD
[2] = molecular target: human CGRP receptor extracellular domain (ECD) (human) (UniProt Q16602); test: yeast-displayed Fab, FACS, 1 nM human CGRP receptor ECD
[3] = molecular target: human CGRP receptor extracellular domain (ECD) (human) (UniProt Q16602); test: yeast-displayed Fab, FACS, 10 nM human CGRP receptor ECD

Chain of human CGRP receptor extracellular domain (ECD) (human) (Q16602 23-138 limits assumed, chain 1 of 2): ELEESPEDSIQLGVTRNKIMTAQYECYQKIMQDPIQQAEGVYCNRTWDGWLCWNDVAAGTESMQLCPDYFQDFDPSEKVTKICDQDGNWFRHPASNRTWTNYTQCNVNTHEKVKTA
Chain of human CGRP receptor extracellular domain (ECD) (human) (chain, as listed by the source limits assumed, chain 2 of 2): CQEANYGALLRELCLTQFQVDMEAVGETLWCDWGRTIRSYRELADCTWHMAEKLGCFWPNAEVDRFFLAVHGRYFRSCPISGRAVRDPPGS
Chain of human PAC1 receptor extracellular domain (ECD) (human) (P41586 24-153): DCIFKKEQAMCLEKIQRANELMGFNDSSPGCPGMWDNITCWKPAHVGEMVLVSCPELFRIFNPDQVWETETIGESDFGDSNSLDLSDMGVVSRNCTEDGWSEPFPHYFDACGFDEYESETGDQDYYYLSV

Mutant vs. 4E4.2 Parent B/D Ratio [1]: 1.8 fold
Normalized Binding Signal/Display Signal (B/D) [1]: 0.2
B1: anti-CGRP receptor variant 05, yeast-displayed Fab (Fab, V domains shown)
VH: QVQLVESGGGVVQPGRSLRLSCAASGFTFSSFGMHWVRQAPGKGLEWVAVISFDGSIKYSVDSVKGRFTISRDNSKNTLFLQMNSLRAEDTAVYYCARDRLNYYESSGYYHYKYYGMAVWGQGTTVTVSS
VL: QSVLTQPPSVSAAPGQKVTISCSGSFSNIGRSTVSWYQQLPGTAPKLLIYDNRWRAGGIPDRFSGSKSGTSATLGITGLQTGDEADYYCGTWDYQWKAVVFGGGTKLTVLG

Mutant vs. 4E4.2 Parent B/D Ratio [1]: 1 fold
Normalized Binding Signal/Display Signal (B/D) [1]: 0.11
Mutant vs. 4E4.2 Parent B/D Ratio [2]: 1 fold
Normalized Binding Signal/Display Signal (B/D) [2]: 0.12
Mutant vs. 4E4.2 Parent B/D Ratio [3]: 1 fold
Normalized Binding Signal/Display Signal (B/D) [3]: 0.15
B2: 4E4.2 parental Fab, yeast-displayed (Fab, V domains shown)
VH: B1 VH
VL: QSVLTQPPSVSAAPGQKVTISCSGSSSNIGNNYVSWYQQLPGTAPKLLIYDNNKRPSGIPDRFSGSKSGTSATLGITGLQTGDEADYYCGTWDSRLSAVVFGGGTKLTVLG

Mutant vs. 4E4.2 Parent B/D Ratio [1]: 1.8 fold
Normalized Binding Signal/Display Signal (B/D) [1]: 0.19
B3: anti-CGRP receptor variant 12, yeast-displayed Fab (Fab, V domains shown)
VH: B1 VH
VL: B1 VL with F26R, S32Y, T33S, W54Y, G57Q, Y94W, Q95A, W96T, K97T, A98S
